Data taken from patent publication US20200172904A1 (MIT, published 2020).

Molecular target: FMR1 (mouse, UniProt P35922 1-614)
Test: co-IP of Mena from E15.5 mouse brain lysates, western blot
Method: Collected lysates were cleared by centrifugation for 20 minutes 14k rpm at 4° C., and incubated overnight at 4° C. with antibodies on magnetic protein G beads (incubated in PBS for 4 hours at 4° C. After IP, beads were washed three times with lysis buffer containing 0.4% NP40, and boiled in 2× sodium dodecyl sulfate (SDS) sample buffer for loading onto an acrylamide gel either for western blotting or for Mass Spectrometry.
Mass spectrometry was performed after immunoprecipitation (IP) of Mena from lysates of E15.5 mouse brains from Mena-wild type and Mena-deficient animals. […] To verify the specificity of these interactions, co-IP experiments from E15.5 mouse brains was performed using Mena-deficient brain lysates or isotype-specific antibodies as negative controls.

- binding result: no binding
B1: Mouse Mena/ENAH (Protein enabled homolog) (other)
chain: MSEQSICQARAAVMVYDDANKKWVPAGGSTGFSRVHIYHHTGNNTFRVVGRKIQDHQVVINCAIPKGLKYNQATQTFHQWRDARQVYGLNFGSKEDANVFASAMMHALEVLNSQEAAQSKVTATQDSTNLRCIFCGPTLPRQNSQLPAQVQNGPSQEELEIQRRQLQEQQRQKELERERMERERLERERLERERLERERLEQEQLERQRQEREHVERLERERLERLERERQERERERLEQLEREQVEWERERRMSNAAPSSDSSLSSAPLPEYSSCQPPSAPPPSYAKVISAPVSDATPDYAVVTALPPTSTPPTPPLRHAATRFATSLGSAFHPVLPHYATVPRPLNKNSRPSSPVNTPSSQPPAAKSCAWPTSNFSPLPPSPPIMISSPPGKATGPRPVLPVCVSSPVPQMPPSPTAPNGSLDSVTYPVSPPPTSGPAAPPPPPPPPPPPPPPPLPPPPLPPLASLSHCGSQASPPPGTPLASTPSSKPSVLPSPSAGAPASAETPLNPELGDSSASEPGLQAASQPAESPTPQGLVLGPPAPPPPPPLPSGPAYASALPPPPGPPPPPPLPSTGPPPPPPPPPPLPNQAPPPPPPPPAPPLPASGIFSGSTSEDNRPLTGLAAAIAGAKLRKVSRVEDGSFPGGGNTGSVSLASSKADAGRGNGPLPLGGSGLMEEMSALLARRRRIAEKGSTIETEQKEDRNEDAEPITAKAPSTSTPEPTRKPWERTNTMNGSKSPVISRPKSTPSSQPSANGVQTEGLDYDRLKQDILDEMRKELAKLKEELIDAIRQELSKSNTA
notes: Endogenous Mena from E15.5 mouse brain lysates, cultured mouse cortical neurons, N2A cells or MEFs
